Reference: patent US20240390512A1 (Daiichi Sankyo, published 2024)
Changes are numbered by the printed parent chain.

How the values were obtained:
[1] = biological target: T1, human CDH6 (cadherin-6), full-length, on cells (human, UniProt P55285 54-790); experiment: flow cytometry; 293α cells transfected with pcDNA3.1-hCDH6; PE anti-human IgG Fcγ F(ab')2
T1 construct: also called hCDH6; full-length hCDH6
T1 sequence: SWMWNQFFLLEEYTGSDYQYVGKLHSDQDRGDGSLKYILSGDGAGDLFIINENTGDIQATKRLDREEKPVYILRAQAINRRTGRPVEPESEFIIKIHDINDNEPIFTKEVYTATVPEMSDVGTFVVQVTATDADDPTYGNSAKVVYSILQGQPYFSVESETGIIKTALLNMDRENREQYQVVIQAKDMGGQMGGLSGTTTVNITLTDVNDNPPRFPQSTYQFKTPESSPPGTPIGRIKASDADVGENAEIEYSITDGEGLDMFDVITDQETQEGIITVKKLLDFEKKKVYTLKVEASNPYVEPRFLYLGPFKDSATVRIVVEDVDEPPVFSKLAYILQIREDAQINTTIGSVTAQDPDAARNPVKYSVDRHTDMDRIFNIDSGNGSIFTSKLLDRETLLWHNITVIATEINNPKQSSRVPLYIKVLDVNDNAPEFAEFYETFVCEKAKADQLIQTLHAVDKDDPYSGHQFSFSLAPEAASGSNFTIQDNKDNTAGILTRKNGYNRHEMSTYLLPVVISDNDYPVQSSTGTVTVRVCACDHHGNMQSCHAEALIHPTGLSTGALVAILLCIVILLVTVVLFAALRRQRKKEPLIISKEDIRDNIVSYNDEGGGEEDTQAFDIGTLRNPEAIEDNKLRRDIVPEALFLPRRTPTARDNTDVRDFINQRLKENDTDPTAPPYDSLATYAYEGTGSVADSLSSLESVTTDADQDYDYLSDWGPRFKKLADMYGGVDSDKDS

[2] = biological target: T2, cynomolgus monkey CDH6, on cells (cynomolgus monkey, UniProt P55285 54-790 (human entry)); experiment: flow cytometry; 293α cells transfected with pcDNA3.1-cynoCDH6; PE anti-human IgG Fcγ F(ab')2
T2 construct: Expressed from pcDNA3.1-cynoCDH6; also called cynoCDH6
T2 sequence: T1 sequence with Y300H, H457R, A707G

[3] = biological target: T3, mouse CDH6, on cells (mouse, UniProt P97326 54-790); experiment: flow cytometry; 293α cells transfected with mCDH6; PE anti-human IgG Fc(gamma) goat F(ab')
T3 construct: also called mCDH6; NP_031692
T3 sequence: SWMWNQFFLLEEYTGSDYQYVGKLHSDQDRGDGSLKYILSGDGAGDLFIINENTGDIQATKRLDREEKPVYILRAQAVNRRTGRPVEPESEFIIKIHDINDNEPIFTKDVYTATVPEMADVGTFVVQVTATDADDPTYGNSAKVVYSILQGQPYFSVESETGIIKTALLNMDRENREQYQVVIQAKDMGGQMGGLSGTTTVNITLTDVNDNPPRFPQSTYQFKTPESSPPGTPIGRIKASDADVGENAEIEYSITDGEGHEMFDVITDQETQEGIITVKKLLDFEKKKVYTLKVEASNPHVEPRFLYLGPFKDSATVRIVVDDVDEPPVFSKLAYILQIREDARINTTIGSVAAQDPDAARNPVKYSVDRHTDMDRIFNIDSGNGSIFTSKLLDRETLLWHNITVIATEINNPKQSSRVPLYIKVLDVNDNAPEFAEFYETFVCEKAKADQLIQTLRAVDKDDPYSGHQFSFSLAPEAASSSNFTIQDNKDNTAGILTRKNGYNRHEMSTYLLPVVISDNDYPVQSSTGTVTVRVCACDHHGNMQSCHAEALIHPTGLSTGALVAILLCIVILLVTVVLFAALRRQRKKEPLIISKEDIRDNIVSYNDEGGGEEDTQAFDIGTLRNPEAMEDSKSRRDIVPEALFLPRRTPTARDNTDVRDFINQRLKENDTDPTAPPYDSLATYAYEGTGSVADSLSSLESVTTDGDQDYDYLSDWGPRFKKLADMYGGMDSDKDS

[4] = biological target: T4, rat CDH6, on cells (rat, UniProt P55280 54-789); experiment: flow cytometry; 293α cells transfected with rCDH6; PE anti-human IgG Fc(gamma) goat F(ab')
T4 construct: also called rCDH6; NP_037059
T4 sequence: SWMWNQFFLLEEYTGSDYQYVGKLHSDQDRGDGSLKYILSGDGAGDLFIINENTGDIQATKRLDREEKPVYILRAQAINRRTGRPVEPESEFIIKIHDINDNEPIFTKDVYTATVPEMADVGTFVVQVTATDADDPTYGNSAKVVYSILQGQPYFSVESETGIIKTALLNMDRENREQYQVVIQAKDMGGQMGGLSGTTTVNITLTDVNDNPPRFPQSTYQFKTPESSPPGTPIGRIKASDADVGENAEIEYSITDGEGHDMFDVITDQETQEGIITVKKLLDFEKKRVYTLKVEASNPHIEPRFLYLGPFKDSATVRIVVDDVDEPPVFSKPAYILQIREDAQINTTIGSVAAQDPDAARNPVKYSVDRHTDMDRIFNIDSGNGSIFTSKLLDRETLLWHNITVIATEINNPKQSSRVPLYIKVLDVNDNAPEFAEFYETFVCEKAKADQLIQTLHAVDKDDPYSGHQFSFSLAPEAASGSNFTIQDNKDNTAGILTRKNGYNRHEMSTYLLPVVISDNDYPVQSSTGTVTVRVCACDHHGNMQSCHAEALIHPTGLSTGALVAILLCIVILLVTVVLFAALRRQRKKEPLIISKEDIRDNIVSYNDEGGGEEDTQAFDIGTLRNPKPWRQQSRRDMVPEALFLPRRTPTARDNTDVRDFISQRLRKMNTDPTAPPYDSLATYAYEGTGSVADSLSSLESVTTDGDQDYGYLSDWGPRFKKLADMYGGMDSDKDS

[5] = biological target: T5, Recombinant Human CDH6 Fc His chimera (R&D Systems, Inc.) (human, UniProt P55285 54-615); experiment: SPR (Biacore T200); antigen captured by immobilized anti-His antibody, antibody as analyte 0.391 to 100 nM; steady state affinity model
T5 construct: Bought reagent; also called the antigen; human CDH6 antigen; Fc part of the bought chimera not given; His tag of the bought chimera
T5 sequence: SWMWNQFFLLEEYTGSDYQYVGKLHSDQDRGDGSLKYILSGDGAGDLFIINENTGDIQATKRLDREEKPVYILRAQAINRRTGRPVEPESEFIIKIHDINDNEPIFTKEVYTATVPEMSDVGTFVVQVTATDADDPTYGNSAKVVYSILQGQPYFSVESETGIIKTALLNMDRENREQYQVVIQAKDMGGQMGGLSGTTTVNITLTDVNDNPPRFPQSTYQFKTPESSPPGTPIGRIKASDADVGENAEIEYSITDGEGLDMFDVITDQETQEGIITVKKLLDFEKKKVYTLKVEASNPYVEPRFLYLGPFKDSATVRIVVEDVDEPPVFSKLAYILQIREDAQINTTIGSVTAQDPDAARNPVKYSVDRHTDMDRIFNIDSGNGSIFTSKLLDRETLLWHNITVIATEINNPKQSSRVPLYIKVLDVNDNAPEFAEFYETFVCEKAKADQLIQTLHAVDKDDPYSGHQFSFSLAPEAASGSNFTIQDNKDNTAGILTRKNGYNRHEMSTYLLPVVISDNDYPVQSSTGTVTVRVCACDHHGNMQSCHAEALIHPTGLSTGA

[6] = biological target: T6, EC3 deletion mutant of human CDH6, on cells (human, UniProt P55285 54-790); experiment: flow cytometry; 293α cells transfected with EC3-deleted hCDH6 (open line) against untransfected 293α cells (shaded); APC anti-human IgG goat F(ab')2; antibody concentration not given
T6 construct: in p3×FLAG-CMV-9; also called EC3-deleted hCDH6
T6 sequence: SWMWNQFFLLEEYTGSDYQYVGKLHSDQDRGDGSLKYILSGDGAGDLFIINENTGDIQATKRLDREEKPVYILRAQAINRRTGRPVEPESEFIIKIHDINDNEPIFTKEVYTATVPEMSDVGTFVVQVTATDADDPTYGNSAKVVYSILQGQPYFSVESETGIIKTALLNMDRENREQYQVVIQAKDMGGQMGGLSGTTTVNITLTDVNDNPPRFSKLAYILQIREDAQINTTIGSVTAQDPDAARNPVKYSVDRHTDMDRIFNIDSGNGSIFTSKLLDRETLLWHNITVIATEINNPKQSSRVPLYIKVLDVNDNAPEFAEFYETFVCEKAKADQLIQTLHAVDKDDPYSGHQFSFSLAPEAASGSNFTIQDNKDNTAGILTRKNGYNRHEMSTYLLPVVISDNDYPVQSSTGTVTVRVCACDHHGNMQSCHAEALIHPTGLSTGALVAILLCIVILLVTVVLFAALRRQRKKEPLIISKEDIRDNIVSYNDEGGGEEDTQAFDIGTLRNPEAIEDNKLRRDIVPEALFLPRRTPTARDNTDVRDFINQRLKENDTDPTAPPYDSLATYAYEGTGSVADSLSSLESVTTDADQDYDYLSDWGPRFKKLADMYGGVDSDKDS

B1: human chimeric anti-CDH6 antibody chG019 (antibody, human IgG1)
heavy: not shown
light: DIQMTQSPSLLSASVGDRVTLNCKASQNIYKNLAWYQQKLGEGPKLLIYDANTLQTGIPSRFSGSGSGSDFTLTISSLQPEDVATYFCQQYYSGWAFGGVTNLELKRAVAAPSVFIFPPSDEQLKSGTASVVCLLNNFYPREAKVQWKVDNALQSGNSQESVTEQDSKDSTYSLSSTLTLSKADYEKHKVYACEVTHQGLSSPVTKSFNRGEC
notes: human IgG1 / kappa constant regions; also called chimeric G019 antibody; chG019 antibody
EC50 (read off the curve) [1]: ~0.01 µg/mL | EC50 (read off the curve) [2]: ~0.01 µg/mL

B2: humanized anti-CDH6 antibody H02L02 (antibody, human IgG1, kappa, V domains shown)
VH: EVQLVQSGAEVKKPGASVKVSCKASGYTFTRNFMHWVRQAPGQGLEWMGWIYPGDGETEYNQKFQGRVTITADRSTSTAYMELSSLRSEDTAVYFCARGVYGGFAGGYFDFWGQGTLVTVSS
VL: DIQMTQSPSSLSASVGDRVTITCKASQNIYKNLAWYQQKPGKAPKLLIYDANTLQTGVPSRFSGSGSGSDFTLTISSLQPEDFATYFCQQYYSGWAFGQGTKVEIKR
notes: hH02 heavy chain and hL02 light chain, human IgG1 / kappa; also called H02L02 antibody
binding result [3]: no binding (tested: about 4, unit not printed on the axis) | binding result [4]: no binding (tested: about 4, unit not printed on the axis) | Kd [5]: 1.1 nM | binding result [6]: no binding

B3: humanized anti-CDH6 antibody H02L03 (antibody, human IgG1, kappa, V domains shown)
VH: B2 VH
VL: B2 VL with P40L, K42E, A43G, S69T, F87Y
notes: hH02 heavy chain and hL03 light chain, human IgG1 / kappa; also called H02L03 antibody
binding result [3]: no binding (tested: about 4, unit not printed on the axis) | binding result [4]: no binding (tested: about 4, unit not printed on the axis) | Kd [5]: 1.4 nM | binding result [6]: no binding

B4: humanized anti-CDH6 antibody H01L02 (antibody, human IgG1, kappa, V domains shown)
VH: B2 VH with N61A, R74T, F95Y
VL: B2 VL
notes: hH01 heavy chain and hL02 light chain, human IgG1 / kappa; also called H01L02 antibody; humanized hG019 (H01L02)
binding result [3]: no binding (tested: about 4, unit not printed on the axis) | binding result [4]: no binding (tested: about 4, unit not printed on the axis) | Kd [5]: 1.5 nM | binding result [6]: no binding
